Legend:
[1] = system: latex specific T cell lines; experiment: Oligoclonal T cell proliferation assay (3H-thymidine incorporation); type: cell-based, human; conditions: for Oligoclonal proliferative response: antigen 10 μg/ml, 4 day cultures
Description: (§1) Latex specific T cell lines were isolated using our well established methods for the generation of allergen specific oligoclonal T cell populations (O'Hehir et al., 1987). An initial primary culture was performed for each patient to determine the optimal concentration of LAL for stimulation. For this, peripheral blood mononuclear cells (PBMC) separated from heparinised venous blood by density centrifugation (2×10^5/well) were stimulated with LAL over a concentration range 0.03 to 100 μg/ml, with control cultures of PBMC alone or stimulated with tetanus toxoid. All cultures were maintained in complete medium (RPMI-1640, Gibco Life Technologies supplemented with 2 mmol/L L-glutamine, 100 IU/ml penicillin-streptomycin and 5% screened, heat inactivated human AB serum [Sigma]). […] Therefore, to generate T cell lines, PBMC (2.5×10^6/well) were stimulated for 1 week with LAL at a concentration of 20 μg/ml in 24-well tissue culture plates (Costar, USA). After 7 days, lymphoblasts (1×10^6/well) were restimulated for one week with LAL at a concentration of 20 μg/ml in the presence of an equal number of irradiated (3000 rad) autologous PBMC as antigen presenting cells (APC). On days 2 and 4, cultures were supplemented with Lymphocult-T (5% v/v; Biotest Folex, Germany) and fresh medium. At the end of the second week, lymphoblasts were restimulated for one week with rhev b 5/MBP at a concentration of 20 μg/ml as described above. Oligoclonal T cells were recovered, washed and tested in proliferation and cytokine assays (as described below) either fresh or after cryopreservation in liquid nitrogen. We have previously shown that CD4^+ T cells are preferentially expanded in these cultures.
Oligoclonal T cell blasts (5×10^4) were incubated in 96-well round bottom plates (Linbro, ICN Biomedicals, USA) in triplicate with equal numbers of irradiated APC in the presence of LAL at concentrations ranging from 0.03-100 μg/ml, rHev b 5/MBP (10 and 20 μg/ml), MBP (10 and 20 μg/ml), overlapping peptides of the Hev b 5 sequence (10 and 30 μg/ml), Lymphocult-T (10 IU/ml) or PHA (3 μg/ml). Cultures of T cells and APC in the absence of antigen, T cells alone and APC alone in the absence of antigen were included as controls. After 72 hours cultures were pulsed with 1 μCi of ^3H-thymidine (^3HTdR; Du Pont, NEN) and harvested 12-16 hours later. Proliferation as correlated with ^3HTdR incorporation was measured by liquid scintillation spectroscopy. Results are expressed as mean counts per minute (cpm) for triplicate cultures with standard deviation (SD; ±20% for all experiments).

[2] = system: PBMC; experiment: Primary culture PBMC proliferation (polyclonal response); type: cell-based, human; conditions: primary cultures of PBMC
Description: as §1, with “At the end of the second week, lymphoblasts were restimulated for one week with rhev b 5/MBP at a concentration of 20 μg/ml as described above. Oligoclonal T cells were recovered, washed and tested in proliferation and cytokine assays (as described below) either fresh or after cryopreservation in liquid nitrogen. We have previously shown that CD4^+ T cells are preferentially expanded in these cultures.” left out

[3] = system: house dust mite specific three-week T cell line; type: cell-based
Description: Mitogenicity of latex antigens was excluded by testing the ability of LAL, rHev b 5/mBP and Hev b 5 peptides to stimulate a house dust mite specific three-week T cell line. No reactivity to latex allergens was observed (data not shown). Toxicity was assessed by coculturing the same antigens with house dust mite specific T cells in the presence of Lymphocult-T at 10 IU/ml.

[4] = system: serum IgE; experiment: Dot immunoblot of patient serum IgE reactivity; type: binding, human; conditions: sera of latex allergic patients 1-6
Description: Patient serum IgE reactivity to latex allergens was analysed by dot immunoblots. LAL (25 μg), rHev b 5/MBP (7 μg) and MBP (4.5 μg) were applied side by side on a nitrocellulose membrane (Schleichner and Schuell, Germany) in a 5 μl volume and allowed to soak in. The amount of MBP was estimated to be equivalent to that in the rHev b 5/MBP aliquot. The membrane was then blocked, incubated in patient sera and IgE binding detected according to our established protocols (Suphioglu et al., 1993). Briefly, the blots were blocked in 10% w/v skim milk powder in PBS and washed once in PBS containing 0.2% v/v Tween 20 and twice in PBS alone. Blots were then incubated in patients' sera (diluted 1:4 in PBS/0.5% BSA) overnight at room temperature with shaking before washing as described above. Finally, IgE antibody binding was detected by incubation in rabbit anti-human IgE (Dako, Denmark) followed by horse radish peroxidase-labelled anti-rabbit antibodies (Promega, USA), washing in between, and developing in the substrate 4-chloro-1-napthol (Sigma) after the final wash.

[5] = Immune response of mice immunised with rHev b 5/MBP (serum ELISA); type: in vivo, BALB/c mice; conditions: 20 μg/injection IP; serum ELISA against rHev b 5/MBP, MBP and NAL
Description: Monoclonal antibody production was carried out based on the method of Köhler and Milstein (Köhler et al., 1975) according to established protocols (Goding, 1996). Six to 8 week old female BALB/c mice were immunised intraperitoneally (IP) with 20 μg/injection of rHev b 5/MBP diluted in 200 μl of phosphate buffered saline (PBS). The first injection was given with an equal volume (200 μl) of Complete Freund's Adjuvant (Sigma, USA), and the second with 200 μl of Incomplete Freund's Adjuvant (Sigma, USA). The subsequent 4 immunisations were given in phosphate buffered saline (PBS) alone. The initial 2 immunisations were given at a 2 weekly interval; the remainder were given at monthly intervals, with 100 μl of whole blood being taken before the first immunisation and at 5 days following each immunisation (except for the first) to monitor the immune response. The blood was then centrifuged, the serum removed, and aliquotted at −20° C. for later analysis using enzyme linked immunosorbent assay (ELISA) as below. The final booster immunisation of 20 μg of rHev b 5/MBP in 200 μl PBS was given IP 3 days before the mouse was humanly killed and the spleen aseptically removed, macerated and then fused with 10^7 murine myeloma cells (X-63.Ag8 cell line, generous gift of Professor Jim Goding). […] Colour development was then observed and the plate read at […]. […]

B1: rHev b 5/MBP: recombinant Hev b 5 as maltose binding protein (MBP) fusion protein (protein)
chain: ASVEVESAATALPKNETPEVTKAEETKTEEPAAPPASEQETADATPEKEEPTAAPAEPEAPAPETEKAEEVEKIEKTEEPAPEADQTTPEEKPAEPEPVAEEEPKHETKETETEAPAAPAEGEKPAEEEKPITEAAETATTEVPVEKTEE
modifications: left off: large carriers; small tags and cut ends
[1]; P1 T cell line
  Oligoclonal proliferative response: 9.0 counts per minute × 10^−3
[1]; P2 T cell line
  Oligoclonal proliferative response: 5.7 counts per minute × 10^−3
[1]; three-week latex specific T cell lines
  oligoclonal proliferative response (in words): significantly higher than those of MBP alone
[2]
  polyclonal PBMC response (in words): considerably less than those to LAL
[3]
  mitogenicity: stimulation of house dust mite specific T cell line: No reactivity
[4]
  serum IgE reactivity: patients 1, 2, 3, 4 and 5 showed IgE reactivity
[5]
  immune response of immunised mice: strong polyclonal immune response

— patent US20070059756A1, “Immunointeractive molecules and their uses in treating subjects suffering from Hev b 5 allergies” (priority 1999, published 2007)
